From publication PMC10620413, “Dimeric Transmembrane Structure of the SARS-CoV-2 E Protein” (Communications Biology, 2023)

Legend:
[1] = biological target: SARS-CoV-2 E protein transmembrane domain E_(12–37) (SARS-CoV-2 (isolate Wuhan-Hu-1)); experiment: SDS-PAGE
SDS-PAGE = biological target: the molecule itself; experiment: SDS-PAGE

Molecule	stoichiometry N [1]	stoichiometry N (SDS-PAGE)
SARS-CoV-2 E protein transmembrane domain E_(12–37) (domain or fragment)	2	–
SNAETGTLIVNSVLLFLAFVVFLLVTLAILTALRLSA (domain or fragment, not shown: MBP, N-terminal, cleaved) [SARS-CoV-2 E protein fragment E_(8–41)]	–	2
